Data from patent US20250122303A1, “TREATMENT AND PREVENTION OF CANCER USING HER3 ANTIGEN-BINDING MOLECULES” (Hummingbird Bioscience Pte. Ltd., priority 2021, published 2025).

B1: MM-121 (antibody, INN chains, looked up, human IgG2)
heavy: EVQLLESGGGLVQPGGSLRLSCAASGFTFSHYVMAWVRQAPGKGLEWVSSISSSGGWTLYADSVKGRFTISRDNSKNTLYLQMNSLRAEDTAVYYCTRGLKMATIFDYWGQGTLVTVSSASTKGPSVFPLAPCSRSTSESTAALGCLVKDYFPEPVTVSWNSGALTSGVHTFPAVLQSSGLYSLSSVVTVPSSNFGTQTYTCNVDHKPSNTKVDKTVERKCCVECPPCPAPPVAGPSVFLFPPKPKDTLMISRTPEVTCVVVDVSHEDPEVQFNWYVDGVEVHNAKTKPREEQFNSTFRVVSVLTVVHQDWLNGKEYKCKVSNKGLPAPIEKTISKTKGQPREPQVYTLPPSREEMTKNQVSLTCLVKGFYPSDIAVEWESNGQPENNYKTTPPMLDSDGSFFLYSKLTVDKSRWQQGNVFSCSVMHEALHNHYTQKSLSLSPG
light: QSALTQPASVSGSPGQSITISCTGTSSDVGSYNVVSWYQQHPGKAPKLIIYEVSQRPSGVSNRFSGSKSGNTASLTISGLQTEDEADYYCCSYAGSSIFVIFGGGTKVTVLGQPKAAPSVTLFPPSSEELQANKATLVCLVSDFYPGAVTVAWKADGSPVKVGVETTKPSKQSNNKYAASSYLSLTPEQWKSHRSYSCRVTHEGSTVEKTVAPAECS
B2: LJM716 (antibody, INN chains, looked up, human IgG1, V domains shown)
VH: EVQLLESGGGLVQPGGSLRLSCAASGFTFSSYAMSWVRQAPGKGLEWVSAINSQGKSTYYADSVKGRFTISRDNSKNTLYLQMNSLRAEDTAVYYCARWGDEGFDIWGQGTLVTVSS
VL: DIQMTQSPSSLSASVGDRVTITCRASQGISNWLAWYQQKPGKAPKLLIYGASSLQSGVPSRFSGSGSGTDFTLTISSLQPEDFATYYCQQYSSFPTTFGQGTKVEIK

How the values were obtained:
[1] = biological target: His-tagged FcγRIIIa (V158) (human) (UniProt P08637); assay: Bio-Layer Interferometry (determined as described in Example 7)
[2] = biological target: FcgRIIA (R167) (human) (UniProt P12318); assay: as above
FcgRIIA (R167) (human), sequence (P12318 36-218 H167R limits assumed): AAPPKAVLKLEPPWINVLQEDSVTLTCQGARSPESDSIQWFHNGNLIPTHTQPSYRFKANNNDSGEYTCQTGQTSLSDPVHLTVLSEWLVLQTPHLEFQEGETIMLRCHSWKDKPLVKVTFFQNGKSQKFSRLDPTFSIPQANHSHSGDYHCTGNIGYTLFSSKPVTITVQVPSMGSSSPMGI

[3] = biological target: FcgRIIA (H167) (human) (UniProt P12318); assay: as above
FcgRIIA (H167) (human), sequence (P12318 36-218 limits assumed): as the sequence (P12318 36-218 H167R limits assumed) above, with R132H counted along it

[4] = biological target: FcgRIIB (human) (UniProt P31994); assay: as above
FcgRIIB (human), sequence (P31994 46-217 limits assumed): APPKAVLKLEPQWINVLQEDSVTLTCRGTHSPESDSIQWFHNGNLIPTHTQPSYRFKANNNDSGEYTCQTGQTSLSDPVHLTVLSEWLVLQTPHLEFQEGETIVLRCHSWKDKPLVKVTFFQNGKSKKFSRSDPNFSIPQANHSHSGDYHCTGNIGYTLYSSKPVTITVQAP

[5] = biological target: FcRn (human) (UniProt P55899); assay: as above
[6] = biological target: moFcRn (mouse) (UniProt Q61559); assay: as above
[7] = biological target: His-tagged human HER3 (human) (UniProt P21860); assay: BLI competition: His-tagged human HER3 on anti-Penta-HIS tips saturated with LJM-716 (400 nM), then MM-121 as competing antibody (300 nM); no unit in the table, the y axis of FIG. 14A is Shift (nm)
[8] = biological target: recombinant biotinylated human HER3 protein (human) (UniProt P21860); assay: plate ELISA dimerisation assay; human EGFR-His coated, constant HER3-biotin and NRG, antibody varied; blocked partner EGFR-His
[9] = biological target: human HER3:human NRG1 complex (human) (UniProt P21860); assay: BLI (Octet QK384), antibody captured on AHC sensors, HER3-NRG1 complex (1:1 molar ratio) in solution

Binder	Kd [1]	Kd [2]	Kd [3]	Kd [4]	Kd [5]	Kd [6]	response of the competing antibody (competition table) [7]	IC50 [8]	Kd [9]	koff [9]	kon [9]
B1	7050 nM	243 nM	222 nM	1440 nM	11.5 nM	6.69 nM	0.693	54.2 nM	1.92 nM	0.000231 s⁻¹	120000 M⁻¹ s⁻¹
B2	–	–	–	–	–	–	–	–	16.8 nM	–	–
